Columns and labels:
[1] = target: ϕW39 R11C Ref (bacteriophage ϕW39); assay: cross-linking; non-specific cross-linker disuccinimidyl glutarate (DSG) to trap the oligomeric states of Ref (Supplementary Figure S2)
[2] = target: ϕW39 R11C Ref (bacteriophage ϕW39); assay: non-reducing SDS-PAGE; Ref dialysed free of DTT; 6.5 μg Ref, 50 mM sodium phosphate pH 7.5, 75 mM sodium chloride, no DTT; non-reducing cracking buffer, 4–15% gradient SDS-PAGE; the dimer is taken as disulfide-linked; 10 mM DTT substantially reduced the dimers of P1 WT Ref and ϕW39 R11C
phiW39 WT Ref = target: T1, phiW39 WT Ref (bacteriophage phiW39, I8L;C11R;K13E;V34A;T46S;L47I;R86T;A93T;N107E;A115S); assay: fluorescence polarization; apparent Kd; 25 mM Tris-acetate pH 8.5, 3 mM potassium glutamate, 15 mM magnesium acetate, 5% w/v glycerol, 2 nM DNA, Ref 0.5-10000 nM, 15 min at room temperature, read at 25 C; one-site fit with Hill coefficient; settings: protein: recombinant, tags: none (native form)
T1 sequence: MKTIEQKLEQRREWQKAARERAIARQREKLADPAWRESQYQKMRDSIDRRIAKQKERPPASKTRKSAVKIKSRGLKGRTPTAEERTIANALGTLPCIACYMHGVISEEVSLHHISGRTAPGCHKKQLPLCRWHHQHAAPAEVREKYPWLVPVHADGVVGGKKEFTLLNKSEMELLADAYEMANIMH

phiW39 deltaN59 Ref = target: T2, phiW39 deltaN59 Ref (bacteriophage phiW39, R86T;A93T;N107E;A115S); assay: fluorescence polarization; Kd value only in Figure 2C; 25 mM Tris-acetate pH 8.5, 3 mM potassium glutamate, 15 mM magnesium acetate, 5% w/v glycerol, 2 nM DNA, Ref 0.5-10000 nM, 15 min at room temperature, read at 25 C; one-site fit with Hill coefficient; settings: protein: recombinant; tags: none (native form); label: 5' 6-FAM; single strand
T2 sequence: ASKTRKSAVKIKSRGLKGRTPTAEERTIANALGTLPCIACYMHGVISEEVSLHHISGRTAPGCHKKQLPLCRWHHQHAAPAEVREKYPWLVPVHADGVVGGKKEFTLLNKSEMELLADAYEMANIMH

phiW39 deltaN74 Ref = target: T3, phiW39 deltaN74 Ref (bacteriophage phiW39, R86T;A93T;N107E;A115S); assay: fluorescence polarization; 25 mM Tris-acetate pH 8.5, 3 mM potassium glutamate, 15 mM magnesium acetate, 5% w/v glycerol, 2 nM DNA, Ref 0.5-10000 nM, 15 min at room temperature, read at 25 C; one-site fit with Hill coefficient; settings: protein: recombinant, tags: none (native form)
T3 sequence: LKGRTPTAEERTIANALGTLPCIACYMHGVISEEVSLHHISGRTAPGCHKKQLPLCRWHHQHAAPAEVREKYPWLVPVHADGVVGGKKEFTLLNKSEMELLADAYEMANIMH

P1 deltaN76 Ref = target: T4, P1 deltaN76 Ref (bacteriophage P1, UniProt P35926 77-186, del1-76); assay: as above; settings: protein: recombinant, tags: none (native form)
T4 sequence: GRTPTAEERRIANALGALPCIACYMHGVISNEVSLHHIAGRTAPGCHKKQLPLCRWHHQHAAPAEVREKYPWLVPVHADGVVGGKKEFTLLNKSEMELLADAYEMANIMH

[3] = target: the molecule itself; assay: AUC; preliminary ultracentrifugation, unpublished data; conditions not given
[4] = label: 5' 6-FAM on strand 1, blunt

ϕW39 R11C Ref (enzyme)
stoichiometry N [1]: 2
stoichiometry N [2]: 2

B1: AJM25 71mer ssDNA (ssDNA)
DNA: CAGAAGTAAGTTGGCCGCAGTGTTATCACTCATGGTTATGGCAGCACTGCATAATTCTCTTACTGTCATGC
Kd (phiW39 WT Ref; label: 5' 6-FAM, single strand): 28 ± 2 nM
binding signal (phiW39 deltaN59 Ref): ~40 fold reduction in affinity
binding result (phiW39 deltaN74 Ref; label: 5' 6-FAM, single strand): no binding
binding result (P1 deltaN76 Ref; label: 5' 6-FAM, single strand): no binding

B2: AJM25/AJG52 71 bp dsDNA (dsDNA)
DNA 1: CAGAAGTAAGTTGGCCGCAGTGTTATCACTCATGGTTATGGCAGCACTGCATAATTCTCTTACTGTCATGC
DNA 2: GCATGACAGTAAGAGAATTATGCAGTGCTGCCATAACCATGAGTGATAACACTGCGGCCAACTTACTTCTG
Kd (phiW39 WT Ref; [4]): 24 ± 1 nM
binding result (phiW39 deltaN74 Ref; [4]): no binding
binding result (P1 deltaN76 Ref; [4]): no binding

B3: bacteriophage P1 Ref (recombination enhancement function) protein, wild type (enzyme, UniProt P35926 1-186, looked up)
chain: MKTIEQKIEQCRKWQKAARERAIARQREKLADPVWRESQYQKMRDTLDRRIAKQKERPPASKTRKSAVKIKSRGLKGRTPTAEERRIANALGALPCIACYMHGVISNEVSLHHIAGRTAPGCHKKQLPLCRWHHQHAAPAEVREKYPWLVPVHADGVVGGKKEFTLLNKSEMELLADAYEMANIMH
notes: has Cys11; Purified in native form (no tag)
stoichiometry N [3]: 2

Source: article PMC4330346, “Function of the N-terminal segment of the RecA-dependent nuclease Ref” (Nucleic Acids Research, 2015)
